Data set [1] deals with HeLa Kyoto. Description: solubility change mitosis vs G1/S (difference of NP-40 vs SDS log2 ratios) (log2 ratio difference); higher = more soluble in mitosis.
The test system of data set [2] is HeLa Kyoto. As to the kind of experiment: melting temperature (median over replicates), in situ; higher = more thermally stable.
The test system of data set [3] is HeLa Kyoto. As to the kind of experiment: solubility in G1/S (NP-40 vs SDS abundance) (log2 ratio); higher = more soluble. Conditions: cell cycle stage: G1/S.
Data set [4] concerns HeLa Kyoto. Description: thermal stability score vs G1/S (z-score of summed log2 fold changes over temperatures); higher = more thermally stable than in G1/S.
Where [5] appears, read: cell cycle stage: early G1 (4.5 h after nocodazole release).
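Wherever melting temperature (median over replicates), in situ is given: HeLa Kyoto cells synchronized by double thymidine or nocodazole block, proteins quantified by TMT10plex mass spectrometry, three independent biological replicates.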
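Wherever solubility change mitosis vs G1/S (difference of NP-40 vs SDS log2 ratios) is given: synchronized HeLa Kyoto cells (double thymidine block for G1/S, nocodazole release for mitosis), protein amounts in NP-40 versus SDS lysates quantified by mass spectrometry, three biological replicates.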
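Wherever solubility in G1/S (NP-40 vs SDS abundance) is given: HeLa Kyoto cells arrested at G1/S by double thymidine block, proteins quantified by TMT10plex mass spectrometry in mild NP-40 versus SDS extracts, three biological replicates.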
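Wherever thermal stability score vs G1/S (z-score of summed log2 fold changes over temperatures) is given: synchronized HeLa Kyoto cells, proteins quantified by TMT10plex mass spectrometry, three biological replicates, mitosis taken 0.5 h after nocodazole release, G1/S directly after double thymidine block.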

Turning to “MHKHQHCCKCPECYEVTRLAALRRLEPPGYGDWQVPDPYGPGGGNGASAGYGGYSSQTLPSQAGATPTPRTKAKLIPTGRDVGPVPPKPVPGKSTPKLNGSGPSWWPECTCTNRDWYEQVNGSDGMFKYEEIVLERGNSGLGFSIAGGIDNPHVPDDPGIFITKIIPGGAAAMDGRLGVNDCVLRVNEVDVSEVVHSRAVEALKEAGPVVRLVVRRRQPPPETIMEVNLLKGPKGLGFSIAGGIGNQHIPGDNSIYITKIIEGGAAQKDGRLQIGDRLLAVNNTNLQDVRHEEAVASLKNTSDMVYLKVAKPGSLHLNDMYAPPDYASTFTALADNHISHNSSLGYLGAVESKVSYPAPPQVPPTRYSPIPRHMLAEEDFTREPRKIILHKGSTGLGFNIVGGEDGEGIFVSFILAGGPADLSGELRRGDRILSVNGVNLRNATHEQAAAALKRAGQSVTIVAQYRPEEYSRFESKIHDLREQMMNSSMSSGSGSLRTSEKRSLYVRALFDYDRTRDSCLPSQGLSFSYGDILHVINASDDEWWQARLVTPHGESEQIGVIPSKKRVEKKERARLKTVKFHARTGMIESNRDFPGLSDDYYGAKNLKGQEDAILSYEPVTRQEIHYARPVIILGPMKDRVNDDLISEFPHKFGSCVPHTTRPRRDNEVDGQDYHFVVSREQMEKDIQDNKFIEAGQFNDNLYGTSIQSVRAVAERGKHCILDVSGNAIKRLQQAQLYPIAIFIKPKSIEALMEMNRRQTYEQANKIYDKAMKLEQEFGEYFTAIVQGDSLEEIYNKIKQIIEDQSGHYIWVPSPEKL [DLG3]”, the “solubility change mitosis (log2)” value in the data set on HeLa Kyoto [1] was -0.139. For the same substance, the melting temperature in the data set on HeLa Kyoto [2] (cell cycle stage: G1/S) turned out to be 52.9 °C; in the data set on HeLa Kyoto [2] (cell cycle stage: mitosis), 53.1 °C. Moreover, the “solubility in G1/S (log2)” value in the data set on HeLa Kyoto [3] was found to be 0.141. The thermal stability score in the data set on HeLa Kyoto [4] (setting [5]) was -0.454; with HeLa Kyoto [4] (cell cycle stage: mitosis) it was -1.05.
As to “MHPPETTTKMASVRFMVTPTKIDDIPGLSDTSPDLSSRSSSRVRFSSRESVPETSRSEPMSEMSGATTSLATVALDPPSDRTSHPQDVIEDLSQNSITGEHSQLLDDGHKKARNAYLNNSNYEEGDEYFDKNLALFEEEMDTRPKVSSLLNRMANYTNLTQGAKEHEEAENITEGKKKPTKTPQMGTFMGVYLPCLQNIFGVILFLRLTWVVGTAGVLQAFAIVLICCCCTMLTAISMSAIATNGVVPAGGSYFMISRALGPEFGGAVGLCFYLGTTFAAAMYILGAIEIFLVYIVPRAAIFHSDDALKESAAMLNNMRVYGTAFLVLMVLVVFIGVRYVNKFASLFLACVIVSILAIYAGAIKSSFAPPHFPVCMLGNRTLSSRHIDVCSKTKEINNMTVPSKLWGFFCNSSQFFNATCDEYFVHNNVTSIQGIPGLASGIITENLWSNYLPKGEIIEKPSAKSSDVLGSLNHEYVLVDITTSFTLLVGIFFPSVTGIMAGSNRSGDLKDAQKSIPIGTILAILTTSFVYLSNVVLFGACIEGVVLRDKFGDAVKGNLVVGTLSWPSPWVIVIGSFFSTCGAGLQSLTGAPRLLQAIAKDNIIPFLRVFGHSKANGEPTWALLLTAAIAELGILIASLDLVAPILSMFFLMCYLFVNLACALQTLLRTPNWRPRFRYYHWALSFMGMSICLALMFISSWYYAIVAMVIAGMIYKYIEYQGAEKEWGDGIRGLSLSAARFALLRLEEGPPHTKNWRPQLLVLLKLDEDLHVKHPRLLTFASQLKAGKGLTIVGSVIVGNFLENYGEALAAEQTIKHLMEAEKVKGFCQLVVAAKLREGISHLIQSCGLGGMKHNTVVMGWPNGWRQSEDARAWKTFIGTVRVTTAAHLALLVAKNISFFPSNVEQFSEGNIDVWWIVHDGGMLMLLPFLLKQHKVWRKCSIRIFTVAQLEDNSIQMKKDLATFLYHLRIEAEVEVVEMHDSDISAYTYERTLMMEQRSQMLRHMRLSKTERDREAQLVKDRNSMLRLTSIGSDEDEETETYQEKVHMTWTKDKYMASRGQKAKSMEGFQDLLNMRPDQSNVRRMHTAVKLNEVIVNKSHEAKLVLLNMPGPPRNPEGDENYMEFLEVLTEGLERVLLVRGGGSEVITIYS [SLC12A6]”, the “solubility change mitosis (log2)” value in the data set on HeLa Kyoto [1] came out at 0.00121. Besides, the melting temperature was determined as 54.8 °C in the data set with HeLa Kyoto [2] (cell cycle stage: G1/S) and 54.4 °C in the data set with HeLa Kyoto [2] (cell cycle stage: mitosis). In addition, the “solubility in G1/S (log2)” value with HeLa Kyoto [3] is -0.0182. For the same substance, the thermal stability score in the data set on HeLa Kyoto [4] (setting [5]) was -0.231; with HeLa Kyoto [4] (cell cycle stage: mitosis), -0.0357.
As to “MHPPKTPSGALHRKRKMAAWPFSRLWKVSDPILFQMTLIAALLPAVLGNCGPPPTLSFAAPMDITLTETRFKTGTTLKYTCLPGYVRSHSTQTLTCNSDGEWVYNTFCIYKRCRHPGELRNGQVEIKTDLSFGSQIEFSCSEGFFLIGSTTSRCEVQDRGVGWSHPLPQCEIVKCKPPPDIRNGRHSGEENFYAYGFSVTYSCDPRFSLLGHASISCTVENETIGVWRPSPPTCEKITCRKPDVSHGEMVSGFGPIYNYKDTIVFKCQKGFVLRGSSVIHCDADSKWNPSPPACEPNSCINLPDIPHASWETYPRPTKEDVYVVGTVLRYRCHPGYKPTTDEPTTVICQKNLRWTPYQGCEALCCPEPKLNNGEITQHRKSRPANHCVYFYGDEISFSCHETSRFSAICQGDGTWSPRTPSCGDICNFPPKIAHGHYKQSSSYSFFKEEIIYECDKGYILVGQAKLSCSYSHWSAPAPQCKALCRKPELVNGRLSVDKDQYVEPENVTIQCDSGYGVVGPQSITCSGNRTWYPEVPKCEWETPEGCEQVLTGKRLMQCLPNPEDVKMALEVYKLSLEIEQLELQRDSARQSTLDKEL [C4BPA]”, in the data set with HeLa Kyoto [1], the “solubility change mitosis (log2)” value was -0.146. Further, the figures for the melting temperature in the data set on HeLa Kyoto [2] (cell cycle stage: G1/S) and with HeLa Kyoto [2] (cell cycle stage: mitosis) were 54.4 °C and 56.1 °C, respectively. In the data set on HeLa Kyoto [3], the “solubility in G1/S (log2)” value is -0.459. Besides, the thermal stability score was 5.62 in the data set with HeLa Kyoto [4] (setting [5]) and 9.17 in the data set with HeLa Kyoto [4] (cell cycle stage: mitosis).
In the case of “MHSRGREIVVLLNPWSINEAVSSYCTYFIKQDSKSFGIMVSWKGIYFILTLFWGSFFGSIFMLSPFLPLMFVNPSWYRWINNRLVATWLTLPVALLETMFGVKVIITGDAFVPGERSVIIMNHRTRMDWMFLWNCLMRYSYLRLEKICLKASLKGVPGFGWAMQAAAYIFIHRKWKDDKSHFEDMIDYFCDIHEPLQLLIFPEGTDLTENSKSRSNAFAEKNGLQKYEYVLHPRTTGFTFVVDRLREGKNLDAVHDITVAYPHNIPQSEKHLLQGDFPREIHFHVHRYPIDTLPTSKEDLQLWCHKRWEEKEERLRSFYQGEKNFYFTGQSVIPPCKSELRVLVVKLLSILYWTLFSPAMCLLIYLYSLVKWYFIITIVIFVLQERIFGGLEIIELACYRLLHKQPHLNSKKNE [LCLAT1]”, the “solubility change mitosis (log2)” value in the data set on HeLa Kyoto [1] was -0.165. For the same substance, the melting temperature with HeLa Kyoto [2] (cell cycle stage: G1/S) worked out at 55.1 °C; in the data set on HeLa Kyoto [2] (cell cycle stage: mitosis) it was 54.7 °C. For the same substance, the “solubility in G1/S (log2)” value in the data set on HeLa Kyoto [3] is -0.201. In addition, the thermal stability score was -2.01 in the data set on HeLa Kyoto [4] (setting [5]) and -2.82 in the data set with HeLa Kyoto [4] (cell cycle stage: mitosis).
With MIA3, in the data set with HeLa Kyoto [1], the “solubility change mitosis (log2)” value is -0.082. Moreover, the values for the melting temperature in the data set with HeLa Kyoto [2] (cell cycle stage: G1/S) and with HeLa Kyoto [2] (cell cycle stage: mitosis) were 51.4 °C and 52.2 °C, respectively. In addition, the “solubility in G1/S (log2)” value in the data set with HeLa Kyoto [3] turned out to be 0.245. Also, the thermal stability score came out at 3.98 in the data set with HeLa Kyoto [4] (setting [5]) and 7.12 in the data set on HeLa Kyoto [4] (cell cycle stage: mitosis).

The record behind these values is the supplement of paper PMC5998384.
